# According to PMC10786891, “Massively parallel profiling of RNA-targeting CRISPR-Cas13d”:
# T1: EsCas13d, nuclease-dead (Eubacterium siraeum, UniProt B0MS50, R295A;H300A;R849A;H854A)
# T1 sequence: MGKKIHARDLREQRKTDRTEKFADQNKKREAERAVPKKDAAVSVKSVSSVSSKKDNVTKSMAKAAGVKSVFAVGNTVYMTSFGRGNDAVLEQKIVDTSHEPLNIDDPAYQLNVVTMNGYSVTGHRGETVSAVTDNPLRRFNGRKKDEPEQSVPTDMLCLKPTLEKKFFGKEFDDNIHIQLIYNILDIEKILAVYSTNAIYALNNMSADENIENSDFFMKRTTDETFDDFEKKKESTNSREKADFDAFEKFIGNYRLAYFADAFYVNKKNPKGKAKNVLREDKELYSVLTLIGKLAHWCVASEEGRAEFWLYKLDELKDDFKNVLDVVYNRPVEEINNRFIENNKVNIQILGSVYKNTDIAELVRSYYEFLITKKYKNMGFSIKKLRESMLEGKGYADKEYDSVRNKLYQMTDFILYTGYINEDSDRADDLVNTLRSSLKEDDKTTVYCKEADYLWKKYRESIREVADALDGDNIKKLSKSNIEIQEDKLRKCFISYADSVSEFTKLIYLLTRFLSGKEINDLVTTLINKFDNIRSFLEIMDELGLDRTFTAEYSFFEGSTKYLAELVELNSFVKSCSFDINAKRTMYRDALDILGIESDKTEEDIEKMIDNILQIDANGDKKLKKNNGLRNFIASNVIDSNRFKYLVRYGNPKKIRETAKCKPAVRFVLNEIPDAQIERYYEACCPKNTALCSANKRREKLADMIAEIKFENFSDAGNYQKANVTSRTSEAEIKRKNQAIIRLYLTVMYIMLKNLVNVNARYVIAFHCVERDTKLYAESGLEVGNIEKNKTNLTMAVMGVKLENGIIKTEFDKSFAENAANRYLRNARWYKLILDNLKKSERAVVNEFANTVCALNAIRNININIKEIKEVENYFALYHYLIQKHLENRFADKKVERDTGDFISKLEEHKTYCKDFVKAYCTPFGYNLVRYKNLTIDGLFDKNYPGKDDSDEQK
# Biological target: T1, EsCas13d, nuclease-dead
# Test: crRNA (strand 1, pre-loaded); Mg2+; 40 mM Tris-HCl pH 7.5, 150 mM NaCl, 6 mM MgCl2, 1 mM DTT, 0.1% Tween-20, 0.2 mg/ml BSA; 25 C; 10 min per concentration, then washed
# Conditions: tags: His6-TwinStrep-SUMO cleaved; N-terminal SNAP kept (SNAP-Surface 488); label: 3' end held by stalled T7 RNA polymerase
row,Binder,Kd [nM]
1,target 1 MT 5'PFS UAA 3'PFS AAG (mixed) RNA 1: CACCCGUGCAAAAAUGCAGGGGUCUAAAACUGAGCGGAUAACCUCUCUAUGG RNA 2: GGGAAUGGAUCCACAUCUACGAAUUCUAACCAUAGAGAGGUUAUCCGCUCAAAGAGAUCGGAAGAGCACACGU,66 ± 26
2,target 1 MT 5'PFS GUC 3'PFS UAC (mixed) RNA 1: CACCCGUGCAAAAAUGCAGGGGUCUAAAACUGAGCGGAUAACCUCUCUAUGG RNA 2: GGGAAUGGAUCCACAUCUACGAAUUCGUCCCAUAGAGAGGUUAUCCGCUCAUACAGAUCGGAAGAGCACACGU,15.1 ± 3.8
3,"target 1 insU 3' of 15,insG 3' of 6 (mixed) RNA 1: CACCCGUGCAAAAAUGCAGGGGUCUAAAACUGAGCGGAUAACCUCUCUAUGG RNA 2: GGGAAUGGAUCCACAUCUACGAAUUCGUACCAUAGAGUAGGUUAUCCGGCUCACCGAGAUCGGAAGAGCACACGU",14.9 ± 0.8
4,target 1 MT 5'PFS GUC 3'PFS ACA (mixed) RNA 1: CACCCGUGCAAAAAUGCAGGGGUCUAAAACUGAGCGGAUAACCUCUCUAUGG RNA 2: GGGAAUGGAUCCACAUCUACGAAUUCGUCCCAUAGAGAGGUUAUCCGCUCAACAAGAUCGGAAGAGCACACGU,~56
5,target 1 MT 5'PFS AAG 3'PFS CUG (mixed) RNA 1: CACCCGUGCAAAAAUGCAGGGGUCUAAAACUGAGCGGAUAACCUCUCUAUGG RNA 2: GGGAAUGGAUCCACAUCUACGAAUUCAAGCCAUAGAGAGGUUAUCCGCUCACUGAGAUCGGAAGAGCACACGU,16 ± 5
6,target 1 MT 5'PFS AAG 3'PFS CUC (mixed) RNA 1: CACCCGUGCAAAAAUGCAGGGGUCUAAAACUGAGCGGAUAACCUCUCUAUGG RNA 2: GGGAAUGGAUCCACAUCUACGAAUUCAAGCCAUAGAGAGGUUAUCCGCUCACUCAGAUCGGAAGAGCACACGU,38.5 ± 13.5
7,target 1 MT 5'PFS GUC 3'PFS UAU (mixed) RNA 1: CACCCGUGCAAAAAUGCAGGGGUCUAAAACUGAGCGGAUAACCUCUCUAUGG RNA 2: GGGAAUGGAUCCACAUCUACGAAUUCGUCCCAUAGAGAGGUUAUCCGCUCAUAUAGAUCGGAAGAGCACACGU,16.1 ± 3.3
8,target 1 MT 5'PFS GUC 3'PFS UAG (mixed) RNA 1: CACCCGUGCAAAAAUGCAGGGGUCUAAAACUGAGCGGAUAACCUCUCUAUGG RNA 2: GGGAAUGGAUCCACAUCUACGAAUUCGUCCCAUAGAGAGGUUAUCCGCUCAUAGAGAUCGGAAGAGCACACGU,17.6 ± 3.35
9,"target 1 A9U,U19A (mixed) RNA 1: CACCCGUGCAAAAAUGCAGGGGUCUAAAACUGAGCGGAUAACCUCUCUAUGG RNA 2: GGGAAUGGAUCCACAUCUACGAAUUCGUACCAAAGAGAGGUUUUCCGCUCACCGAGAUCGGAAGAGCACACGU",52 ± 10
10,target 1 MT 5'PFS CCG 3'PFS AUC (mixed) RNA 1: CACCCGUGCAAAAAUGCAGGGGUCUAAAACUGAGCGGAUAACCUCUCUAUGG RNA 2: GGGAAUGGAUCCACAUCUACGAAUUCCCGCCAUAGAGAGGUUAUCCGCUCAAUCAGAUCGGAAGAGCACACGU,~8.65
11,target 1 MT 5'PFS CCA 3'PFS AAU (mixed) RNA 1: CACCCGUGCAAAAAUGCAGGGGUCUAAAACUGAGCGGAUAACCUCUCUAUGG RNA 2: GGGAAUGGAUCCACAUCUACGAAUUCCCACCAUAGAGAGGUUAUCCGCUCAAAUAGAUCGGAAGAGCACACGU,7.3 ± 2.35
12,target 1 MT 5'PFS AUG 3'PFS CGG (mixed) RNA 1: CACCCGUGCAAAAAUGCAGGGGUCUAAAACUGAGCGGAUAACCUCUCUAUGG RNA 2: GGGAAUGGAUCCACAUCUACGAAUUCAUGCCAUAGAGAGGUUAUCCGCUCACGGAGAUCGGAAGAGCACACGU,47.5 ± 22.5
13,target 1 MT 5'PFS GGC 3'PFS CUC (mixed) RNA 1: CACCCGUGCAAAAAUGCAGGGGUCUAAAACUGAGCGGAUAACCUCUCUAUGG RNA 2: GGGAAUGGAUCCACAUCUACGAAUUCGGCCCAUAGAGAGGUUAUCCGCUCACUCAGAUCGGAAGAGCACACGU,17.1 ± 7.05
14,target 1 MT 5'PFS GCC 3'PFS ACA (mixed) RNA 1: CACCCGUGCAAAAAUGCAGGGGUCUAAAACUGAGCGGAUAACCUCUCUAUGG RNA 2: GGGAAUGGAUCCACAUCUACGAAUUCGCCCCAUAGAGAGGUUAUCCGCUCAACAAGAUCGGAAGAGCACACGU,~64
15,target 1 MT 5'PFS GUC 3'PFS ACU (mixed) RNA 1: CACCCGUGCAAAAAUGCAGGGGUCUAAAACUGAGCGGAUAACCUCUCUAUGG RNA 2: GGGAAUGGAUCCACAUCUACGAAUUCGUCCCAUAGAGAGGUUAUCCGCUCAACUAGAUCGGAAGAGCACACGU,16.9 ± 2.05
16,target 1 MT 5'PFS GCA 3'PFS UUC (mixed) RNA 1: CACCCGUGCAAAAAUGCAGGGGUCUAAAACUGAGCGGAUAACCUCUCUAUGG RNA 2: GGGAAUGGAUCCACAUCUACGAAUUCGCACCAUAGAGAGGUUAUCCGCUCAUUCAGAUCGGAAGAGCACACGU,9.95 ± 1.2
17,target 1 MT 5'PFS AGC 3'PFS UAG (mixed) RNA 1: CACCCGUGCAAAAAUGCAGGGGUCUAAAACUGAGCGGAUAACCUCUCUAUGG RNA 2: GGGAAUGGAUCCACAUCUACGAAUUCAGCCCAUAGAGAGGUUAUCCGCUCAUAGAGAUCGGAAGAGCACACGU,17 ± 6.5
18,"target 1 A14C,A16G (mixed) RNA 1: CACCCGUGCAAAAAUGCAGGGGUCUAAAACUGAGCGGAUAACCUCUCUAUGG RNA 2: GGGAAUGGAUCCACAUCUACGAAUUCGUACCAUAGGGCGGUUAUCCGCUCACCGAGAUCGGAAGAGCACACGU",~90
19,target 1 MT 5'PFS AUA 3'PFS AGG (mixed) RNA 1: CACCCGUGCAAAAAUGCAGGGGUCUAAAACUGAGCGGAUAACCUCUCUAUGG RNA 2: GGGAAUGGAUCCACAUCUACGAAUUCAUACCAUAGAGAGGUUAUCCGCUCAAGGAGAUCGGAAGAGCACACGU,~90
20,target 1 MT 5'PFS AUA 3'PFS CGG (mixed) RNA 1: CACCCGUGCAAAAAUGCAGGGGUCUAAAACUGAGCGGAUAACCUCUCUAUGG RNA 2: GGGAAUGGAUCCACAUCUACGAAUUCAUACCAUAGAGAGGUUAUCCGCUCACGGAGAUCGGAAGAGCACACGU,27 ± 6.5
21,target 1 MT 5'PFS GCA 3'PFS UUA (mixed) RNA 1: CACCCGUGCAAAAAUGCAGGGGUCUAAAACUGAGCGGAUAACCUCUCUAUGG RNA 2: GGGAAUGGAUCCACAUCUACGAAUUCGCACCAUAGAGAGGUUAUCCGCUCAUUAAGAUCGGAAGAGCACACGU,7.65 ± 1.2
22,target 1 MT 5'PFS GCU 3'PFS CGA (mixed) RNA 1: CACCCGUGCAAAAAUGCAGGGGUCUAAAACUGAGCGGAUAACCUCUCUAUGG RNA 2: GGGAAUGGAUCCACAUCUACGAAUUCGCUCCAUAGAGAGGUUAUCCGCUCACGAAGAUCGGAAGAGCACACGU,49.5 ± 17
23,target 1 MT 5'PFS GCC 3'PFS ACU (mixed) RNA 1: CACCCGUGCAAAAAUGCAGGGGUCUAAAACUGAGCGGAUAACCUCUCUAUGG RNA 2: GGGAAUGGAUCCACAUCUACGAAUUCGCCCCAUAGAGAGGUUAUCCGCUCAACUAGAUCGGAAGAGCACACGU,11.2 ± 2.05
24,target 1 MT 5'PFS ACC 3'PFS CUC (mixed) RNA 1: CACCCGUGCAAAAAUGCAGGGGUCUAAAACUGAGCGGAUAACCUCUCUAUGG RNA 2: GGGAAUGGAUCCACAUCUACGAAUUCACCCCAUAGAGAGGUUAUCCGCUCACUCAGAUCGGAAGAGCACACGU,~12
25,target 1 MT 5'PFS GUC 3'PFS UAA (mixed) RNA 1: CACCCGUGCAAAAAUGCAGGGGUCUAAAACUGAGCGGAUAACCUCUCUAUGG RNA 2: GGGAAUGGAUCCACAUCUACGAAUUCGUCCCAUAGAGAGGUUAUCCGCUCAUAAAGAUCGGAAGAGCACACGU,16 ± 4.3
26,target 1 MT 5'PFS GGC 3'PFS CUU (mixed) RNA 1: CACCCGUGCAAAAAUGCAGGGGUCUAAAACUGAGCGGAUAACCUCUCUAUGG RNA 2: GGGAAUGGAUCCACAUCUACGAAUUCGGCCCAUAGAGAGGUUAUCCGCUCACUUAGAUCGGAAGAGCACACGU,11.3 ± 2.25
27,target 1 MT 5'PFS GUG 3'PFS GGA (mixed) RNA 1: CACCCGUGCAAAAAUGCAGGGGUCUAAAACUGAGCGGAUAACCUCUCUAUGG RNA 2: GGGAAUGGAUCCACAUCUACGAAUUCGUGCCAUAGAGAGGUUAUCCGCUCAGGAAGAUCGGAAGAGCACACGU,20.3 ± 2.5
28,target 1 MT 5'PFS GCU 3'PFS CGC (mixed) RNA 1: CACCCGUGCAAAAAUGCAGGGGUCUAAAACUGAGCGGAUAACCUCUCUAUGG RNA 2: GGGAAUGGAUCCACAUCUACGAAUUCGCUCCAUAGAGAGGUUAUCCGCUCACGCAGAUCGGAAGAGCACACGU,42.5 ± 15
